Where “and” joins values, the source holds several entries; their conditions need not be identical. Equal entries are not always repeated.

In assay [1] the target is M. polysiphoniae SPARTA (MapSPARTA) complex of MapAgo and MapTIR-APAZ (Maribacter polysiphoniae). In words: cryo-EM structure.
For assay [2] the target is unchanged. In words: cryo-EM structure. The source holds these as a separate data set.
Assay [3] shares this target. Description: mass photometry.

Turning to “M. polysiphoniae SPARTA (MapSPARTA) complex of MapAgo and MapTIR-APAZ”, the stoichiometry N – broadly, the number of molecules, sites or subunits per partner or assembly – in assay [1] is 4; in assay [2], 2; in assay [3], 2 and 4.

(Values after publication PMC10355822.)
